In US20170363643A1:

Columns and labels:
[1] = target: His-tagged recombinant human SMN protein (ProteinTech, catalog # ag14333) (human) (UniProt Q16637); assay: Erenna sandwich assay, capture MABE230 12.5 µg/mg MPs; Det Ab 1000 ng/mL; SMN 7.41 pg/mL
[2] = target: endogenous SMN protein in human CSF (human) (UniProt Q16637); assay: Erenna sandwich assay, capture MABE230; human CSF sample 1, unspiked (endogenous SMN only)
[3] = target: His-tagged recombinant human SMN protein (ProteinTech, catalog # ag14333) (human) (UniProt Q16637); assay: Erenna sandwich assay, capture MABE230 12.5 µg/mg MPs; Det Ab 500 ng/mL; SMN 66.67 pg/mL
[4] = target: His-tagged recombinant human SMN protein (ProteinTech, catalog # ag14333) (human) (UniProt Q16637); assay: Erenna sandwich assay, capture MABE230; human CSF sample 4 spiked with recombinant SMN 10.0 pg/mL (endogenous SMN also present)
[5] = target: His-tagged recombinant human SMN protein (ProteinTech, catalog # ag14333) (human) (UniProt Q16637); assay: Erenna sandwich assay, capture MABE230 12.5 µg/mg MPs; Det Ab 500 ng/mL; SMN 0.46 pg/mL
[6] = target: His-tagged recombinant human SMN protein (ProteinTech, catalog # ag14333) (human) (UniProt Q16637); assay: Erenna sandwich assay, capture MABE230; human CSF sample 2 spiked with recombinant SMN 5.0 pg/mL (endogenous SMN also present)
[7] = target: His-tagged recombinant human SMN protein (ProteinTech, catalog # ag14333) (human) (UniProt Q16637); assay: BLI (BLItz), His-tagged SMN immobilised on the biosensor tip, antibody in solution
[8] = target: endogenous SMN protein in human CSF (human) (UniProt Q16637); assay: Erenna sandwich assay, capture MABE230; human CSF sample 4, unspiked (endogenous SMN only)
[9] = target: His-tagged recombinant human SMN protein (ProteinTech, catalog # ag14333) (human) (UniProt Q16637); assay: Erenna sandwich assay, capture MABE230; SMN 2 pg/mL, MPs 5 µg/well, Det Ab 500 ng/mL, Cap Ab/MP 25 µg/mg
[10] = target: His-tagged recombinant human SMN protein (ProteinTech, catalog # ag14333) (human) (UniProt Q16637); assay: Erenna sandwich assay, capture MABE230 12.5 µg/mg MPs; Det Ab 1000 ng/mL; SMN 0.12 pg/mL
[11] = target: His-tagged recombinant human SMN protein (ProteinTech, catalog # ag14333) (human) (UniProt Q16637); assay: Erenna sandwich assay, capture MABE230 12.5 µg/mg MPs; Det Ab 1000 ng/mL; SMN 3.70 pg/mL
[12] = target: His-tagged recombinant human SMN protein (ProteinTech, catalog # ag14333) (human) (UniProt Q16637); assay: Erenna sandwich assay, capture MABE230 12.5 µg/mg MPs; Det Ab 1000 ng/mL; SMN 0.23 pg/mL
[13] = target: endogenous SMN protein in human CSF (human) (UniProt Q16637); assay: Erenna sandwich assay, capture MABE230; human CSF sample 5, unspiked (endogenous SMN only)
[14] = target: His-tagged recombinant human SMN protein (ProteinTech, catalog # ag14333) (human) (UniProt Q16637); assay: Erenna sandwich assay, capture MABE230; SMN 2 pg/mL, MPs 5 µg/well, Det Ab 1000 ng/mL, Cap Ab/MP 25 µg/mg
[15] = target: His-tagged recombinant human SMN protein (ProteinTech, catalog # ag14333) (human) (UniProt Q16637); assay: Erenna sandwich assay, capture MABE230; SMN 2 pg/mL, MPs 10 µg/well, Det Ab 50 ng/mL, Cap Ab/MP 25 µg/mg
[16] = target: His-tagged recombinant human SMN protein (ProteinTech, catalog # ag14333) (human) (UniProt Q16637); assay: Erenna sandwich assay, capture MABE230; SMN 2 pg/mL, MPs 5 µg/well, Det Ab 100 ng/mL, Cap Ab/MP 12.5 µg/mg
[17] = target: His-tagged recombinant human SMN protein (ProteinTech, catalog # ag14333) (human) (UniProt Q16637); assay: Erenna sandwich assay, capture MABE230 12.5 µg/mg MPs; Det Ab 500 ng/mL; SMN 0.12 pg/mL
[18] = target: His-tagged recombinant human SMN protein (ProteinTech, catalog # ag14333) (human) (UniProt Q16637); assay: Erenna sandwich assay, capture MABE230; human CSF sample 4 spiked with recombinant SMN 5.0 pg/mL (endogenous SMN also present)
[19] = target: His-tagged recombinant human SMN protein (ProteinTech, catalog # ag14333) (human) (UniProt Q16637); assay: Erenna sandwich assay, capture MABE230; SMN 2 pg/mL, MPs 10 µg/well, Det Ab 50 ng/mL, Cap Ab/MP 12.5 µg/mg
[20] = target: His-tagged recombinant human SMN protein (ProteinTech, catalog # ag14333) (human) (UniProt Q16637); assay: Erenna sandwich assay, capture MABE230 12.5 µg/mg MPs; Det Ab 1000 ng/mL; SMN 0.46 pg/mL
[21] = target: His-tagged recombinant human SMN protein (ProteinTech, catalog # ag14333) (human) (UniProt Q16637); assay: Erenna sandwich assay, capture MABE230; SMN 2 pg/mL, MPs 5 µg/well, Det Ab 50 ng/mL, Cap Ab/MP 12.5 µg/mg
[22] = target: His-tagged recombinant human SMN protein (ProteinTech, catalog # ag14333) (human) (UniProt Q16637); assay: Erenna sandwich assay, capture MABE230 12.5 µg/mg MPs; Det Ab 500 ng/mL; SMN 22.22 pg/mL

“ProteinTech anti-SMN2 (catalog #60154-1-Ig) (antibody)” showed a detected events (DE) (detected events) [1] of 7200, an event photons (EP) (event photons) [1] of 1.32e+06 and a detected events (DE) (detected events) [2] of 330. The detected events (DE) (detected events) [3] was 12000, the event photons (EP) (event photons) [3] was 9.53e+06 and the detected events (DE) (detected events) [4] was 8660. It also gave a detected events (DE) (detected events) [5] of 562, an event photons (EP) (event photons) [5] of 77500 and a detected events (DE) (detected events) [6] of 5310. For the same substance, the Kd [7] was less than 1 pM, the koff [7] was less than 1e-07 s⁻¹ and the kon [7] was 118000 M⁻¹ s⁻¹. The detected events (DE) (detected events) [8] was 375, the detected events (DE) (detected events) [9] was 1930 and the detected events (DE) (detected events) [10] was 193. For the same substance, the event photons (EP) (event photons) [10] was 26300, the detected events (DE) (detected events) [11] was 4330 and the event photons (EP) (event photons) [11] was 706000. The detected events (DE) (detected events) [12] was 330, the event photons (EP) (event photons) [12] was 44800 and the detected events (DE) (detected events) [13] was 479. The detected events (DE) (detected events) [14] was 2180, the detected events (DE) (detected events) [15] was 776 and the detected events (DE) (detected events) [16] was 753. It also gave a detected events (DE) (detected events) [17] of 154, an event photons (EP) (event photons) [17] of 19500 and a detected events (DE) (detected events) [18] of 5810. The detected events (DE) (detected events) [19] was 681, the detected events (DE) (detected events) [20] was 630 and the event photons (EP) (event photons) [20] was 87400. It also gave a detected events (DE) (detected events) [21] of 450, a detected events (DE) (detected events) [22] of 12200 and an event photons (EP) (event photons) [22] of 3.85e+06.
